Assay results from patent US8772007 (dated 2014).

Molecular target: the molecule itself
Test: self-association; Sephadex 200 sizing column, fractions assayed for pNB activity; standards 669 kDa 16 ml, 158 kDa 24 ml, 43 kDa 26 ml, 14 kDa 32 ml

Binder | elution volume
Sinorhizobium meliloti RSM02162 (G00355) (enzyme, Synthetic gene G00355, expressed in E. coli from pMC355rbs; also called pMC355rbs) MVEKRSVLCFGDSLTWGWIPVKESSPTLRYPYEQRWTGAMAARLGDGYHIIEEGLSARTTSLDDPNDARLNGSTYLPMALASHLPLDLVIIMLGTNDTKSYFHRTPYEIANGMGKLVGQVLTCAGGVGTPYPAPKVLVVAPPPLAPMPDPWFEGMFGGGYEKSKELSGLYKALADFMKVEFFAAGDCISTDGIDGIHLSAETNIRLGHAIADKVAALF | 24 mL
Sinorhizobium meliloti SmeI (SMa1993) (enzyme) MTINSHSWRTLMVEKRSVLCFGDSLTWGWIPVKGSSPTLRYPYEQRWTGAMAARLGDGYHIIEEGLSARTTSLDDPNDARLNGSTYLPMALASHLPLDLVIIMLGTNDTKSYFHRTPYEIANGMGKLVGQVLTCAGGVGTPYPAPKVLVVAPPPLAPMPDPWFEGMFGGGYEKSKELSGLYKALADFMKVEFFAAGDCISTDGIDGIHLSAETNIRLGHAIADKVAALF | 24 mL
Mesorhizobium loti Mlo I (Q98MY5) (enzyme, Expressed in E. coli from pET26_Mlo; also called pET26_Mlo; pET26_MlO) MKTVLCYGDSLTWGYNAEGGRHALEDRWPSVLQAALGAGVQVIADGLNGRTTAFDDHLAGADRNGARLLPTVLTTHAPIDLIIFMLGANDMKPWIHGNPVAAKQGIQRLIDIVRGHDYPFDWPAPQILIVAPPVVSRTENADFKEMFAGGDDASKFLAPQYAALADEAGCGFFDAGSVAQTTPLDGVHLDAENTREIGKALTPIVRVMLEL | 24 mL
Moraxella bovis Mbo (AAK53448) (enzyme, Described as an outer membrane localized autotransporter protein; also called pET26_Mbo) KEFSQVIIFGDSLSDTGRLKDMVARKDGTLGNTLQPSFTTNPDPVWSSLFAQSYGKTASPNTPDNPTGTNYAVGGARSGSEVNWNGFVNVPSTKTQITDHLTATGGKADPNTLYAIWIGSNDLISASQATTTAEAQNAIKGAVTRTVIDIETLNQAGATTILVPNVPDLSLTPRAIYGESLMAGVQDKAKLASSLYNSGLFEALNQSTANIIPANTFALLQEATTNKEAFGFKNTQGVACQMPARTTGADDVASTSLACTKANLIENGANDTYAFADDIHPSGRTHRILAQYYRSIMDAPTHMGKLSGELVKTGSAHDRHVYRQLDRLSGSQHSIWANVYASDRTDPTTQIGLDVAGSSSHTGAYLSHQNQDYVLDDTLSSDVKTIGMGLYHRHDIGNVRLKGVAGIDRLSVDTHRHIDWEGTSRSHTADTTARRFHAGLQASYGIDMGKATVRPLIGVHAQKVKVNDMTESESTLSTAMRFGEQEQKSLQGEIGVDVAYPISPALTLTGGIAHAHEFNDDERTINATLTSIREYTKGFNTSVSTDKSHATTAHLGVQGQLGKANIHAGVHATHQDSDTDVGGSLGVRLMF | 24 mL
Salmonella typhimurium Stm (AAC38796) (enzyme, Described as an outer membrane localized autotransporter protein; also called Sty) FDSLTVIGDSLSDTGNNGRWTWDSGQNKLYDEQLAERYGLELSPSSNGGSNYAAGGATATPELNPQDNTADQVRQWLAKTGGKADHNGLYIHWVGGNDLAAAIAQPTMAQQIAGNSATSAAAQVGLLLDAGAGLVVVPNVPDISATPMLLEAVITAGLGAAAPPALKAALDALAEGATPDFASRQQAIRKALLAAAATVSSNPFIQQLLVEQLLAGYEAAAGQASALTDYYNQMEEKGLEQHGGNIARADINGLFKEILANPQAFGLTNTVGMACPPGVSASACSSAMPGFNASQDYVFADHLHPGPQVHTIIAQYIQSIIAAPVQATYLNQSVQSMAQGSRTTLDSRYQQLRQGENPVGSLGMFGGYSGGYQRYDNNEADGNGNHNNLTVGVDYQLNEQVLLGGLIAGSLDKQHPDDNYRYDARGFQAAVFSHLRAGQAWLDSDLHFLSAKFSNIQRSITLGALRRVEEGETNGRLSGASLTSGYDFVMVPWLTTGPMLQYAWDYSHVNGYSEKLNTSTSMRFGDQNAHSQVGSAGWRLDLRHSIIHSWAQINYRRQFGDDTYVANGGLKSTALTFSRDGKTQDKNWVDIAIGADFPLSATVSAFAGLSQTAGLSDGNQTRYNVGFSARF | 24 mL
S261_M2aA12 metagenomic GDSL-type esterase (enzyme, Metagenomic clone; also called pET26_m2aA12) MKNILAFGDSLTWGFVAGQDARHPFETRWPNALAAGLGGKARVIEEGQNGRTTVFDDAATFESRNGSVALPLLLISHQPLDLVIIMLGTNDIKFAARCRAFDASMGMERLIQIVRSANYMKGYKIPEILIISPPSLVPTQDEWFNDLWGHAIAESKLFAKHYKRVAEELKVHFFDAGTVAVADKTDGGHLDAVNTKAIGVALVPVVKSILAL | 24 mL
Sinorhizobium meliloti SmeII (Q92XZ1) (enzyme, Expressed in E. coli from pET26_SmeII; also called pET26_SmeII) MEETVARTVLCFGDSNTHGQVPGRGPLDRYRREQRWGGVLQGLLGPNWQVIEEGLSGRTTVHDDPIEGSLKNGRTYLRPCLQSHAPLDLIIIMLGTNDLKRRFNMPPSEVAMGIGCLVHDIRELSPGRTGNDPEIMIVAPPPMLEDLKEWESIFSGAQEKSRKLALEFEIMADSLEAHFFDAGTVCQCSPADGFHIDEDAHRLLGEALAQEVLAIGWPDA | 24 mL

molecular target: S279_M70aE8 metagenomic GDSL-type esterase; test: as above

Binder | elution volume
S279_M70aE8 metagenomic GDSL-type esterase (enzyme) MPKIAKLAPSDVIVAFGDSLTFGTGATEAESYPIVLAQLIGRTVVRAGVPGEVTEGGLARLTDVIEEHKPKLIIVCLGGNDMLRKVQEDQTRANLRAIIKTIKAQGIAVVLVGVPKPALVTSAPPFYEEIAKEFGIPYEGKIVTDVLYQRDQKSDSIHPNAKGYRRMAEAIATLLKKSGAI | 32 mL
